B1: NEK8 (parent)
chain: VTIKHVACGDFFTACLTDRGIIMT

Variants of: B1
Test: protein stability index of a GFP-peptide fusion (GPS, HEK-293T) (PSI 1-6); higher = more stable
Settings: c terminus: a fixed tail appended
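Also: lentivirally expressed fusions sorted by FACS into six bins by GFP to DsRed ratio, PSI derived from sequencing read proportions per bin multiplied by bin number.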

Protein stability index: each site, then its substitutions
C15: Q 2.59, F 3.35, I 3.26, R 2.91, V 2.5, S 3.9, K 2.58, W 3.09, D 3.14, L 2.37, Y 2.42, H 1.61, T 3.74, E 3.04, N 4.23, M 4.25
D10: C 2.56, R 2.3, Y 2.44, K 3.54, T 2.71, H 3.8, N 1.59, V 2.91, W 2.4, L 2.26, I 3.11, M 3.29, E 3.23
M23: C 2.67, D 3.49, A 1.6, E 2.81
I21: S 2.5, H 2.36, Q 2.92, M 2.95, F 2.9, V 3.14, L 2.25, G 3.21, P 2.25, N 2.87, C 2.7, K 2.78, E 3.51, R 2.49, T 2.48, A 1.79, W 2.31, D 2.13
F12: T 3.71, E 1.72, C 1.53, Y 2.02, D 2.2, G 2.17, K 1.81, P 1.8, W 2.6, L 1.79, S 3.05, R 2.21, V 2.77, I 3.98, M 2.61, N 2.67
F11: G 1.8, Y 2.81, P 3.05, V 2.76, S 2.05, I 4.45, L 2.23, K 2.13, C 1.91, N 2.85, W 4.01, D 1.46, M 3.07, E 2.9, A 2.49, T 2.82, Q 3.07, H 1.88
G9: R 3.64, D 3, I 3.19, E 2.66, F 2.38, S 3.21, A 2.32, K 2.98, H 2.74, W 3.39, M 3.93, C 1.88, T 3.5, Y 3.79
V1: K 1.91, S 3.58, W 4.31, P 1.33, Q 1.59, H 2.87, Y 3.81, T 1.54, N 2.51, I 2.71, R 2.44, M 3.97
D18: L 2.09, K 4.11, T 2.72, N 3.07, Y 3.05, C 2.02, V 3.85, S 4.67, W 3.08, P 3.31, A 4.82, F 4.13, G 3.08, R 5.42
R19: C 2.48, K 3.78, V 2.56, W 3.11, T 2.77, Q 1.92, Y 2.32, S 2.97, H 1.81, P 4.49, M 2.32, E 3.52, A 2.01, N 3.56, G 3.25, I 2.96, D 3.29
T2: D 2.1, R 2.24, I 2.48, Y 3.11, G 3.03, S 2.88, M 3.25, K 2.06, C 2, E 2.31, F 3.64, W 2.38, P 3.12
I22: F 4.9, Q 3.88, V 2.46, C 3.72, E 3.75, D 3.93, K 3.62, G 2.98, Y 2.39, L 4.46, N 3.67, P 2.67, W 4.62, A 2.38
G20: T 1.48, A 3.45, C 2.94, K 2.35, V 1.72, D 2.04, N 2.75, Q 2.06, P 3.42, F 2.21, W 2.57, M 3.22, Y 2.3, S 2.84, H 3.22, L 2.91, I 2.82
K4: Y 2.75, F 2.88, M 1.33, N 2.03, E 1.58, L 3.2, R 2.47, V 1.74, A 4.56, H 2.81, C 3.59, D 2.87, T 2.17, S 2.57, G 3.43, W 3.87, I 2.27, P 2.13
V6: S 2.55, W 4.09, N 3.92, Y 1.72, K 2.63, D 1.35, H 2.85, E 3.14, A 2.86, L 2.85, R 3.07, G 2.57, T 2.61, I 3.76, F 2.71, P 4.25
A7: Y 3.2, Q 3.77, L 2.33, M 2.95, T 2.88, P 1.72, E 2.69, K 3.25, C 1.98, S 1.57, I 2.61, D 2.43
T17: F 3.49, K 4.32, V 3.2, Q 3.69, C 2.27, R 3.53, D 2.27, G 1.94, P 2.64, H 3.72, N 4.51, I 4.6, S 3.16, L 3.17, M 3.48
C8: N 3.4, E 3.57, T 2.44, R 3.18, W 2.41, I 2.51, V 2.48, F 2.28, D 3.33, Q 3.4, A 3.3, L 3.14, Y 3.47, P 2.4
H5: S 3.48, K 1.19, L 1.99, F 2.88, W 2.46, T 3.55, M 5.14, R 3.65, I 4.16, C 2.12, P 3.52, D 3.02
A14: T 3.17, E 1.47, H 1.86, K 1.9, W 2.01, M 3.53, I 2.87, V 2.55, P 2.68, Q 1.12, D 1.98, R 2.34, L 2.31, C 2.65, Y 2.65, G 2.51
T13: K 3.17, N 1.86, M 2.39, F 2.81, C 2.13, L 2.11, S 1.28, D 3.61, Y 3.95, V 2.64, I 1.31, Q 2.47, H 3.07, P 3.32
I3: Y 2.57, E 2.6, N 2.55, K 1.92, S 2.69, V 2.27, R 2.22, D 3.11, Q 2.49, P 2.31, T 3.18, A 1.28, G 2.58, L 2.32, H 2.67, F 3.2
L16: S 3.85, Y 2.13, F 3.61, Q 3.06, C 2.43, E 1.89, R 2.33, M 2.15, T 1.76, K 3.12, H 2.88, I 2.3, D 1.91, P 2.59, A 4.14
